Data on nine molecules can be found in US20190112393 (published 2019).

B1: BP435 (antibody)
chain 1: QVQLQESGPGLVKPSETLSLTCAVSGHSISHDHAWSWVRQPPGEGLEWIGFISYSGITNYNPSLQGRVTISRDNSKNTLYLQMNSLRAEDTAVYYCARSLARTTAMDYWGEGTLVTVSSASTKGPSVFPLAPSSKSTSGGTAALGCLVKDYFPEPVTVSWNSGALTSGVHTFPAVLQSSGLYSLSSVVTVPSSSLGTQTYICNVNHKPSNTKVDKKVEPKSCDKTHTCPPCPAPDLLGDDSVFLFPPKPKDTLMISRTPEVTCVVVDVSDEDGEVKFNWYVDGVEVHNAKTKPREEQDNSTYRVVSVLTVLHQDWLNGKEYKCKVSNAALPRPTEKTISKAKGQPREPQVYTLPPSRDELTKNQVSLTCLVKGFYPSDIAVEWESNGQPENNYKTTPPVLDSDGSFFLYSKLTVDKSRWQQGNVFSCSVMHEALHNHYTQESLSLSP
chain 2: not shown
B2: BP264 (antibody)
chain 1: QVQLQESGPGLVKPSETLSLTCAVSGHSISHDHAWSWVRQPPGEGLEWIGFISYSGITNYNPSLQGRVTISRDNSKNTLYLQMNSLRAEDTAVYYCARSLARTTAMDYWGEGTLVTVSSASTKGPSVFPLAPSSKSTSGGTAALGCLVKDYFPEPVTVSWNSGALTSGVHTFPAVLQSSGLYSLSSVVTVPSSSLGTQTYICNVNHKPSNTKVDKKVEPKSCDKTHTCPPCPAPDLLGDDSVFLFPPKPKDTLMISRTPEVTCVVVDVSEEDGEVKFNWYVDGVEVHNAKTKPREEQDNSTYRVVSVLTVLHQDWLNGKEYKCKVSNKALPRPIEKTISKAKGQPREPQVYTLPPSRDELTKNQVSLTCLVKGFYPSDIAVEWESNGQPENNYKTTPPVLDSDGSFFLYSKLTVDKSRWQQGNVFSCSVMHEALHNHYTQESLSLSP
chain 2: not shown
B3: BP426 (antibody)
chain 1: QVQLQESGPGLVKPSETLSLTCAVSGHSISHDHAWSWVRQPPGEGLEWIGFISYSGITNYNPSLQGRVTISRDNSKNTLYLQMNSLRAEDTAVYYCARSLARTTAMDYWGEGTLVTVSSASTKGPSVFPLAPSSKSTSGGTAALGCLVKDYFPEPVTVSWNSGALTSGVHTFPAVLQSSGLYSLSSVVTVPSSSLGTQTYICNVNHKPSNTKVDKKVEPKSCDKTHTCPPCPAPDLLGDDSVFLFPPKPKDTLMISRTPEVTCVVVDVAEDDGEVKFNWYVDGVEVHNAKTKPREEQYNSTYRVVSVLTVLHQDWLNGKEYKCKVSNKALPRPIEKTISKAKGQPREPQVYTLPPSRDELTKNQVSLTCLVKGFYPSDIAVEWESNGQPENNYKTTPPVLDSDGSFFLYSKLTVDKSRWQQGNVFSCSVMHEALHNHYTQESLSLSP
chain 2: not shown
B4: Fv4-YTE (antibody)
chain 1: QVQLQESGPGLVKPSETLSLTCAVSGHSISHDHAWSWVRQPPGEGLEWIGFISYSGITNYNPSLQGRVTISRDNSKNTLYLQMNSLRAEDTAVYYCARSLARTTAMDYWGEGTLVTVSSASTKGPSVFPLAPSSKSTSGGTAALGCLVKDYFPEPVTVSWNSGALTSGVHTFPAVLQSSGLYSLSSVVTVPSSSLGTQTYICNVNHKPSNTKVDKKVEPKSCDKTHTCPPCPAPELLGGPSVFLFPPKPKDTLYITREPEVTCVVVDVSHEDPEVKFNWYVDGVEVHNAKTKPREEQYNSTYRVVSVLTVLHQDWLNGKEYKCKVSNKALPAPIEKTISKAKGQPREPQVYTLPPSRDELTKNQVSLTCLVKGFYPSDIAVEWESNGQPENNYKTTPPVLDSDGSFFLYSKLTVDKSRWQQGNVFSCSVMHEALHNHYTQKSLSLSP
chain 2: DIQMTQSPSSLSASVGDSVTITCQASTDISSHLNWYQQKPGKAPELLIYYGSHLLSGVPSRFSGSGSGTDFTFTISSLEAEDAATYYCGQGNRLPYTFGQGTKVEIERTVAAPSVFIFPPSDEQLKSGTASVVCLLNNFYPREAKVQWKVDNALQSGNSQESVTEQDSKDSTYSLSSTLTLSKADYEKHKVYACEVTHQGLSSPVTKSFNRGEC
B5: F1170 (antibody)
chain 1: QVQLQESGPGLVKPSETLSLTCAVSGHSISHDHAWSWVRQPPGEGLEWIGFISYSGITNYNPSLQGRVTISRDNSKNTLYLQMNSLRAEDTAVYYCARSLARTTAMDYWGEGTLVTVSSASTKGPSVFPLAPSSKSTSGGTAALGCLVKDYFPEPVTVSWNSGALTSGVHTFPAVLQSSGLYSLSSVVTVPSSSLGTQTYICNVNHKPSNTKVDKKVEPKSCDKTHTCPPCPAPELLGGPSVFLFPPKPKDTLMISRTPEVTCVVVDVSHEDPEVKFNWYVDGVEVHNAKTKPREEQYNSTYRVVSVLTVLHQDWLNGKEYKCKVSNKALPAPIEKTISKAKGQPREPQVYTLPPSRDELTKNQVSLTCLVKGFYPSDIAVEWESNGQPENNYKTTPPVLDSDGSFFLYSKLTVDKSRWQQGNVFSCSVLHEALHSHYTRKELSLSP
chain 2: DIQMTQSPSSLSASVGDSVTITCQASTDISSHLNWYQQKPGKAPELLIYYGSHLLSGVPSRFSGSGSGTDFTFTISSLEAEDAATYYCGQGNRLPYTFGQGTKVEIERTVAAPSVFIFPPSDEQLKSGTASVVCLLNNFYPREAKVQWKVDNALQSGNSQESVTEQDSKDSTYSLSSTLTLSKADYEKHKVYACEVTHQGLSSPVTKSFNRGEC
B6: F1166 (antibody)
chain 1: QVQLQESGPGLVKPSETLSLTCAVSGHSISHDHAWSWVRQPPGEGLEWIGFISYSGITNYNPSLQGRVTISRDNSKNTLYLQMNSLRAEDTAVYYCARSLARTTAMDYWGEGTLVTVSSASTKGPSVFPLAPSSKSTSGGTAALGCLVKDYFPEPVTVSWNSGALTSGVHTFPAVLQSSGLYSLSSVVTVPSSSLGTQTYICNVNHKPSNTKVDKKVEPKSCDKTHTCPPCPAPELLGGPSVFLFPPKPKDTLYITREPEVTCVVVDVSHEDPEVKFNWYVDGVEVHNAKTKPREEQYNSTYRVVSVLTVLHQDWLNGKEYKCKVSNKALPAPIEKTISKAKGQPREPQVYTLPPSRDELTKNQVSLTCLVKGFYPSDIAVEWESNGQPENNYKTTPPVLDSDGSFFLYSKLTVDKSRWQQGNVFSCSVMHEALHNHYTRKELSLSP
chain 2: DIQMTQSPSSLSASVGDSVTITCQASTDISSHLNWYQQKPGKAPELLIYYGSHLLSGVPSRFSGSGSGTDFTFTISSLEAEDAATYYCGQGNRLPYTFGQGTKVEIERTVAAPSVFIFPPSDEQLKSGTASVVCLLNNFYPREAKVQWKVDNALQSGNSQESVTEQDSKDSTYSLSSTLTLSKADYEKHKVYACEVTHQGLSSPVTKSFNRGEC
B7: F1172 (antibody)
chain 1: QVQLQESGPGLVKPSETLSLTCAVSGHSISHDHAWSWVRQPPGEGLEWIGFISYSGITNYNPSLQGRVTISRDNSKNTLYLQMNSLRAEDTAVYYCARSLARTTAMDYWGEGTLVTVSSASTKGPSVFPLAPSSKSTSGGTAALGCLVKDYFPEPVTVSWNSGALTSGVHTFPAVLQSSGLYSLSSVVTVPSSSLGTQTYICNVNHKPSNTKVDKKVEPKSCDKTHTCPPCPAPELLGGPSVFLFPPKPKDTLMISRTPEVTCVVVDVSHEDPEVKFNWYVDGVEVHNAKTKPREEQYNSTYRVVSVLTVLHQDWLNGKEYKCKVSNKALPAPIEKTISKAKGQPREPQVYTLPPSRDELTKNQVSLTCLVKGFYPSDIAVEWESNGQPENNYKTTPPVLDSDGSFFLYSKLTVDKSRWQQGNVFSCSVMHEALHHHYTRKELSLSP
chain 2: DIQMTQSPSSLSASVGDSVTITCQASTDISSHLNWYQQKPGKAPELLIYYGSHLLSGVPSRFSGSGSGTDFTFTISSLEAEDAATYYCGQGNRLPYTFGQGTKVEIERTVAAPSVFIFPPSDEQLKSGTASVVCLLNNFYPREAKVQWKVDNALQSGNSQESVTEQDSKDSTYSLSSTLTLSKADYEKHKVYACEVTHQGLSSPVTKSFNRGEC
B8: F1171 (antibody)
chain 1: QVQLQESGPGLVKPSETLSLTCAVSGHSISHDHAWSWVRQPPGEGLEWIGFISYSGITNYNPSLQGRVTISRDNSKNTLYLQMNSLRAEDTAVYYCARSLARTTAMDYWGEGTLVTVSSASTKGPSVFPLAPSSKSTSGGTAALGCLVKDYFPEPVTVSWNSGALTSGVHTFPAVLQSSGLYSLSSVVTVPSSSLGTQTYICNVNHKPSNTKVDKKVEPKSCDKTHTCPPCPAPELLGGPSVFLFPPKPKDTLMISRTPEVTCVVVDVSHEDPEVKFNWYVDGVEVHNAKTKPREEQYNSTYRVVSVLTVLHQDWLNGKEYKCKVSNKALPAPIEKTISKAKGQPREPQVYTLPPSRDELTKNQVSLTCLVKGFYPSDIAVEWESNGQPENNYKTTPPVLDSDGSFFLYSKLTVDKSRWQQGNVFNCSVLHEALHSHYTQKSLSLSP
chain 2: DIQMTQSPSSLSASVGDSVTITCQASTDISSHLNWYQQKPGKAPELLIYYGSHLLSGVPSRFSGSGSGTDFTFTISSLEAEDAATYYCGQGNRLPYTFGQGTKVEIERTVAAPSVFIFPPSDEQLKSGTASVVCLLNNFYPREAKVQWKVDNALQSGNSQESVTEQDSKDSTYSLSSTLTLSKADYEKHKVYACEVTHQGLSSPVTKSFNRGEC
B9: F1167 (antibody)
chain 1: QVQLQESGPGLVKPSETLSLTCAVSGHSISHDHAWSWVRQPPGEGLEWIGFISYSGITNYNPSLQGRVTISRDNSKNTLYLQMNSLRAEDTAVYYCARSLARTTAMDYWGEGTLVTVSSASTKGPSVFPLAPSSKSTSGGTAALGCLVKDYFPEPVTVSWNSGALTSGVHTFPAVLQSSGLYSLSSVVTVPSSSLGTQTYICNVNHKPSNTKVDKKVEPKSCDKTHTCPPCPAPELLGGPSVFLFPPKPKDTLYITREPEVTCVVVDVSHEDPEVKFNWYVDGVEVHNAKTKPREEQYNSTYRVVSVLTVLHQDWLNGKEYKCKVSNKALPAPIEKTISKAKGQPREPQVYTLPPSRDELTKNQVSLTCLVKGFYPSDIAVEWESNGQPENNYKTTPPVLDSDGSFFLYSKLTVDKSRWQQGNVFNCSVMHEALHNHYTQKSLSLSP
chain 2: DIQMTQSPSSLSASVGDSVTITCQASTDISSHLNWYQQKPGKAPELLIYYGSHLLSGVPSRFSGSGSGTDFTFTISSLEAEDAATYYCGQGNRLPYTFGQGTKVEIERTVAAPSVFIFPPSDEQLKSGTASVVCLLNNFYPREAKVQWKVDNALQSGNSQESVTEQDSKDSTYSLSSTLTLSKADYEKHKVYACEVTHQGLSSPVTKSFNRGEC

The target in one test is T1, human FcγRIa (human, UniProt P12314).
T1 chain: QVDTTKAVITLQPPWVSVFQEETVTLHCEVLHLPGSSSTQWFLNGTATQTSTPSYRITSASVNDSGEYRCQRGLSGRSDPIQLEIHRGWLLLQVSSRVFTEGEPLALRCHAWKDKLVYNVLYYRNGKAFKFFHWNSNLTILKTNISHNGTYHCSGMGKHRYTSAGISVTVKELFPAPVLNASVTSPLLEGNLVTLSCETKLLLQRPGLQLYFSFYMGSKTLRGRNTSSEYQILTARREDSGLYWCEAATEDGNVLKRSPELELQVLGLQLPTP
Put plainly: SPR. In general terms: In SPR one partner is held on a chip, and binding of the other changes the refractive index at the surface.
For B1, the Kd (usually the equilibrium constant for the complex coming apart) came out at 1 nM.
For B2, the Kd worked out at 7.4 nM.
On to B3, for which binding was characterised by a dissociation constant (Kd) of 1 nM.

In the next test the target is human FcRn (human). Briefly: SPR, pH 6.0.
Sequence of human FcRn (human) (chain, as listed by the source, chain 1 of 2): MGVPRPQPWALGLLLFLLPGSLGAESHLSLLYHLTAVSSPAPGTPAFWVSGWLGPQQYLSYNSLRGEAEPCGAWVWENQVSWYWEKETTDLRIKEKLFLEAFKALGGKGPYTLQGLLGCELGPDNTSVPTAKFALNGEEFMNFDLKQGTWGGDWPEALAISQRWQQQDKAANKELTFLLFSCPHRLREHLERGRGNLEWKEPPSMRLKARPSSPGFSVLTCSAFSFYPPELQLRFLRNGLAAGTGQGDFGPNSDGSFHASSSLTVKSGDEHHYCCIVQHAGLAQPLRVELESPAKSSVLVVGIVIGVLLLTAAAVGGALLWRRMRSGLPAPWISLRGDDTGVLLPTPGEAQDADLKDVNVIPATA
Sequence of human FcRn (human) (chain, as listed by the source, chain 2 of 2): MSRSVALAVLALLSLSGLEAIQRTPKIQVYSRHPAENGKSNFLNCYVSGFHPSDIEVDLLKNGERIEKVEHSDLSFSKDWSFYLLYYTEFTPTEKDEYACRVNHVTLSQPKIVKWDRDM
On to B4, for which the Kd was found to be 210 nM.
Still for that read-out and setting: then B5, with 150 nM; and B6, with 210 nM; and B7, with 400 nM.
In the case of B8, the Kd amounted to 240 nM.
Consider B9, for which binding was put at a Kd of 250 nM.
